Positions count from the first letter of the chain named. Names may count otherwise. Blank lines part the entries; values can stand above or below the molecule they belong to.
Key:
[1] = target: His-tagged Importin β (Impβ), H. sapiens, from pQE60-Impβ (human) (UniProt Q14974); test: ITC
[2] = target: Importin β (hsImpβ) of the purified trimeric complex Impβ:Imp7:H1.11L-chick (human, UniProt Q14974 1-876); test: cross-linking
[3] = target: His-tagged Importin β (Impβ), H. sapiens, from pQE60-Impβ (human, UniProt Q14974 1-876); test: ITC
His-tagged Importin β (Impβ), H. sapiens, from pQE60-Impβ, sequence (Q14974 whole entry): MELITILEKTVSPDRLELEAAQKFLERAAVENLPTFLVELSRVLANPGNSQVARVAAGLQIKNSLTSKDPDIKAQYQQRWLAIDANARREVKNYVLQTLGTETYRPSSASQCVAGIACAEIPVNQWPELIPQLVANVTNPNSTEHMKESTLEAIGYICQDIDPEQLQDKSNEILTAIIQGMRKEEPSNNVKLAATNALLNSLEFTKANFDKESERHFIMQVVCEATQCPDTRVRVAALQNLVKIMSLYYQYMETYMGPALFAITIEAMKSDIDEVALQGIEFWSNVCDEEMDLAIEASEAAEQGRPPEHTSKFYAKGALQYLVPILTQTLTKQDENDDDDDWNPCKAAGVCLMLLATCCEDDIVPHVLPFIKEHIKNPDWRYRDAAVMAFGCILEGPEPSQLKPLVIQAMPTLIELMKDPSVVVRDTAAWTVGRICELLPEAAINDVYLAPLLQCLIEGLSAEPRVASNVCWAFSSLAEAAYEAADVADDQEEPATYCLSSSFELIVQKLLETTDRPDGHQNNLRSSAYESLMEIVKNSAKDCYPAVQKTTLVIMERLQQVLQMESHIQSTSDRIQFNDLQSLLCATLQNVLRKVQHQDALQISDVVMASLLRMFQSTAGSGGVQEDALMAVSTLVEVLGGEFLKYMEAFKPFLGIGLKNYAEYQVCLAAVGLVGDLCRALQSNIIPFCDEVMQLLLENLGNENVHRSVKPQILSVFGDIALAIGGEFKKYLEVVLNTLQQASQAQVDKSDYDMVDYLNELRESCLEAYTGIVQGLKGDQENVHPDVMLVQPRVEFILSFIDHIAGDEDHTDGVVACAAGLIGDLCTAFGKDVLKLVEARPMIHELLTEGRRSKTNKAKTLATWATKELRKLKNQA

His-tagged Importin β (Impβ), H. sapiens, from pQE60-Impβ (human), sequence (Q14974 whole entry): as above
Importin β (hsImpβ) of the purified trimeric complex Impβ:Imp7:H1.11L-chick, sequence (Q14974 whole entry, one chain of several): as the sequence (Q14974 whole entry) above

Molecule: GST-tagged Imp7 (1002-1038) fragment V1023T (domain or fragment)
fold reduction of affinity against the wild-type NlB region (1002-1038) [1]: 4 fold

Molecule: GST-tagged Imp7 (1002-1038) fragment P1024G (domain or fragment)
fold reduction of binding against the wild-type NlB region (1002-1038) [1]: 7 fold

B2: GST-tagged Imp7 (1002-1038) fragment F1019Y (domain or fragment, X. laevis, UniProt O42480 1002-1038, looked up)
chain: RRAAHESKMIEKHGGYKYNAPVVPSTFNFGNPAPGMN
fold reduction of affinity against the wild-type NlB region (1002-1038) [3]: ≥ 5 fold

B5: GST-tagged Imp7 (1002-1038) fragment N1032G (domain or fragment, X. laevis, UniProt O42480 1002-1038, looked up)
chain: B2 chain with Y18F, N31G
fold increase of affinity against the wild-type NlB region (1002-1038) [3]: ~2 fold

B7: GST-NlB 1016-1030 (domain or fragment, X. laevis, UniProt O42480 1016-1030, looked up)
chain: GYKFNAPVVPSTFNF
fold reduction of affinity against the NlB region (1002-1038) [3]: ~4 fold

The next lines start with the values.

fold reduction of affinity against the wild-type NlB region (1002-1038) [1]: 15 fold
Molecule: GST-tagged Imp7 (1002-1038) fragment V1023E (domain or fragment)

binding result [2]: binds
B1: Histone H1.11L from chicken (natural protein, chicken (Gallus gallus), UniProt P08287 1-225, looked up)
chain: MSETAPAPAAEAAPAAAPAPAKAAAKKPKKAAGGAKARKPAGPSVTELITKAVSASKERKGLSLAALKKALAAGGYDVEKNNSRIKLGLKSLVSKGTLVQTKGTGASGSFRLSKKPGEVKEKAPKKKASAAKPKKPAAKKPAAAAKKPKKAVAVKKSPKKAKKPAASATKKSAKSPKKVTKAVKPKKAVAAKSPAKAKAVKPKAAKPKAAKPKAAKAKKAAAKKK

fold reduction of affinity against the wild-type NlB region (1002-1038) [3]: ≥ 5 fold
B3: GST-tagged Imp7 (1002-1038) fragment F1028Y (domain or fragment, X. laevis, UniProt O42480 1002-1038, looked up)
chain: B2 chain with Y18F, F27Y

fold increase of affinity against the wild-type NlB region (1002-1038) [3]: ~2 fold
B4: GST-tagged Imp7 (1002-1038) fragment N1029S (domain or fragment, X. laevis, UniProt O42480 1002-1038, looked up)
chain: B2 chain with Y18F, N28S

fold reduction of affinity against the wild-type NlB region (1002-1038) [3]: ≥ 5 fold
B6: GST-tagged Imp7 (1002-1038) fragment F1030Y (domain or fragment, X. laevis, UniProt O42480 1002-1038, looked up)
chain: B2 chain with Y18F, F29Y
